Target: cyno PD1
Experiment: flow cytometry, PD-1-transfected CHO-S cells; mAb 10 ug/ml, then R-PE PD-L1-Fc as blocked ligand

Sequence of cyno PD1 (receptor, as listed by the source limits assumed): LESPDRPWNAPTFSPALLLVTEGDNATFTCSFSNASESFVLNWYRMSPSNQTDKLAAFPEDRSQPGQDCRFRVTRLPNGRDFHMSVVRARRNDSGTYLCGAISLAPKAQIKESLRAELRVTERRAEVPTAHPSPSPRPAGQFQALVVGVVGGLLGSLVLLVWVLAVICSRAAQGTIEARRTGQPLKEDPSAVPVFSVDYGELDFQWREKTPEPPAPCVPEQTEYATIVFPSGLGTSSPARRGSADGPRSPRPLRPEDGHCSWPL
Sequence of pembrolizumab analogue (antibody) (VH): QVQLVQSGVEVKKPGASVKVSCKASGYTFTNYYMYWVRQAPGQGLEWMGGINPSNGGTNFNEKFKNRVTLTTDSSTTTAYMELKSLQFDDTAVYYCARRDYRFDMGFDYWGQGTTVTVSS
Sequence of pembrolizumab analogue (antibody) (VL): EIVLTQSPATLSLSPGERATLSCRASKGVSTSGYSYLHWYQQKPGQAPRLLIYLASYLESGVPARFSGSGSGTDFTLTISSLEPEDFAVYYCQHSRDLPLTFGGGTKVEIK

pembrolizumab analogue (antibody) was tested. Which % of all cells in Q2 of panel PD-L1 binding (PD-L1+, CFSE+ cyno PD1 cells) did it give?
The % of all cells in Q2 of panel PD-L1 binding (PD-L1+, CFSE+ cyno PD1 cells) was 0.38%.

What about the % of all cells in Q3 of panel PD-L1 binding (PD-L1-, CFSE+ cyno PD1 cells) of the same substance?
The % of all cells in Q3 of panel PD-L1 binding (PD-L1-, CFSE+ cyno PD1 cells) was 52.5%.

And the % of cyno PD1-gated cells in Q1 (mAb+, PD-L1-)?
Its % of cyno PD1-gated cells in Q1 (mAb+, PD-L1-) is 44.7%.

And the % of cyno PD1-gated cells in Q2 (mAb+, PD-L1+)?
The % of cyno PD1-gated cells in Q2 (mAb+, PD-L1+) was 3.84%.

What about the % of cyno PD1-gated cells in Q3 (mAb-, PD-L1+) of the same substance?
The % of cyno PD1-gated cells in Q3 (mAb-, PD-L1+) was 0.92%.

And the % of cyno PD1-gated cells in Q4 (mAb-, PD-L1-)?
The % of cyno PD1-gated cells in Q4 (mAb-, PD-L1-) was 50.6%.
